Test results published in US20140179896A1 (published 2014).

B1: 2′E4-PR4 (designed binder)
chain: VSDVPRDLEVVAATPTSLLISWRHPHFPTRYYRITYGETGGNSPVQEFTVPLQPPTATISGLKPGVDYTITGYAVTVHWNGHELMTPISINYRT
notes: WT N-terminus
B2: 2′C6-PR4 (designed binder)
chain: VSDVPRDLEVVAATPTSLLISWRHPHFPTRYYRITYGETGGNSPVQEFTVPLQPPTATISGLKPGVDYTITGYAVTMGFMAHELMVPISINYRT
notes: WT N-terminus
B3: 2′H4-PR4 (designed binder)
chain: VSDVPRDLEVVAATPTSLLISWRHPHFPTRYYRITYGETGGNSPVQEFTVPLQPPTATISGLKPGVDYTITGYAVTVGPNERMLMTPISINYRT
notes: WT N-terminus
B4: 2′D6-PR4 (designed binder)
chain: VSDVPRDLEVVAATPTSLLISWRHPHFPTRYYRITYGETGGNSPVQEFTVPLQPPTATISGLKPGVDYTITGYAVTVTHNGHPLMTPISINYRT
notes: WT N-terminus
B5: A3 (designed binder)
chain: EVVAATPTSLLISWRHPHFPTRYYRITYGETGGNSPVQEFTVPLQPPTATISGLKPGVDYTITGYAVTDGWNGKMLSVPISINYRT
notes: 10Fn3 clone, Del 1-8
B6: 4′E7 PR4 (designed binder)
chain: EVVAATPTSLLISWRHPHFPTRYYRITYGETGGNSPVQEFTVPLQPPTATISGLKPGVDYTITGYAVTWAQNDHELLTPISINYRT
notes: Del 1-8
B7: 4′D8 PR4 (designed binder)
chain: EVVAATPTSLLISWRHPHFPTRYYRITYGETGGNSPVQEFTVPLQPPTATISGLKPGVDYTITGYAVTLAQNGHELYTPISINYRT
notes: Del 1-8
B8: G1 (designed binder)
chain: EVVAATPTSLLISWRHPHFPTRYYRITYGETGGNSPVQEFTVPLQPPTATISGLKPGVDYTITGYAVTEGRNGRELMVPISINYRT
notes: 10Fn3 clone, Del 1-8
B9: 4′D6 PR4 (designed binder)
chain: EVVAATPTSLLISWRHPHFPTRYYRITYGETGGNSPVQEFTVPLQPPTATISGLKPGVDYTITGYAVTMAQNDHELMTPISINYRT
notes: Del 1-8
B10: A4 (designed binder)
chain: EVVAATPTSLLISWRHPHFPTRYYRITYGETGGNSPVQEFTVPLQPPTATISGLKPGVDYTITGYAVTDGYNDRLLFIPISINYRT
notes: 10Fn3 clone, Del 1-8
B11: 4′G12 PR4 (designed binder)
chain: EVVAATPTSLLISWRHPHFPTRYYRITYGETGGNSPVQEFTVPLQPPTATISGLKPGVDYTITGYAVTVAWNDHEIYTPISINYRT
notes: Del 1-8
B12: 4′B11 PR4 (designed binder)
chain: EVVAATPTSLLISWRHPHFPTRYYRITYGETGGNSPVQEFTVPLQPPTATISGLKPGVDYTITGYAVTMAHNDHELLTPISINYRT
notes: Del 1-8
B13: B3 (designed binder)
chain: EVVAATPTSLLISWRHPHFPTRYYRITYGETGGNSPVQEFTVPLQPPTATISGLKPGVDYTITGYAVTMERNGRELMTPISINYRT
notes: 10Fn3 clone, Del 1-8
B14: A8 (designed binder)
chain: EVVAATPTSLLISWRHPHFPTRYYRITYGETGGNSPVQEFTVPLQPPTATISGLKPGVDYTITGYAVTDGLNGKYLFVPISINYRT
notes: 10Fn3 clone, Del 1-8
B15: A9 (designed binder)
chain: EVVAATPTSLLISWRHPHFPTRYYRITYGETGGNSPVQEFTVPLQPPTATISGLKPGVDYTITGYAVTEGWNDRELFVPISINYRT
notes: 10Fn3 clone, Del 1-8
B16: 4′H12 PR4 (designed binder)
chain: EVVAATPTSLLISWRHPHFPTRYYRITYGETGGNSPVQEFTVPLQPPTATISGLKPGVDYTITGYAVTVAHNDHELLTPISINYRT
notes: Del 1-8
B17: 4′G4 PR4 (designed binder)
chain: EVVAATPTSLLISWRHPHFPTRYYRITYGETGGNSPVQEFTVPLQPPTATISGLKPGVDYTITGYAVTVAQNDRELLTPISINYRT
notes: Del 1-8
B18: 4′C9 PR4 (designed binder)
chain: EVVAATPTSLLISWRHPHFPTRYYRITYGETGGNSPVQEFTVPLQPPTATISGLKPGVDYTITGYAVTLGPNDHELMTPISINYRT
notes: Del 1-8
B19: 4′B8 PR4 (designed binder)
chain: EVVAATPTSLLISWRHPHFPTRYYRITYGETGGNSPVQEFTVPLQPPTATISGLKPGVDYTITGYAVTVAQNDHKLFIPISINYRT
notes: Del 1-8
B20: B4 (designed binder)
chain: EVVAATPTSLLISWRHPHFPTRYYRITYGETGGNSPVQEFTVPLQPPTATISGLKPGVDYTITGYAVTNERNGRELMTPISINYRT
notes: 10Fn3 clone, Del 1-8
B21: 4′H5 PR4 (designed binder)
chain: EVVAATPTSLLISWRHPHFPTRYYRITYGETGGNSPVQEFTVPLQPPTATISGLKPGVDYTITGYAVTLAQNGHELFTPISINYRT
notes: Del 1-8
B22: 4′C5 PR4 (designed binder)
chain: EVVAATPTSLLISWRHPHFPTRYYRITYGETGGNSPVQEFTVPLQPPTATISGLKPGVDYTITGYAVTLGLNDHELITPISINYRT
notes: Del 1-8
B23: 4′H7 PR4 (designed binder)
chain: EVVAATPTSLLISWRHPHFPTRYYRITYGETGGNSPVQEFTVPLQPPTATISGLKPGVDYTITGYAVTLAHNDHELLTPISINYRT
notes: Del 1-8
B24: 4′B7 PR4 (designed binder)
chain: EVVAATPTSLLISWRHPHFPTRYYRITYGETGGNSPVQEFTVPLQPPTATISGLKPGVDYTITGYAVTVAQNNHELLTPISINYRT
notes: Del 1-8
B25: A12 (designed binder)
chain: EVVAATPTSLLISWRHPHFPTRYYRITYGETGGNSPVQEFTVPLQPPTATISGLKPGVDYTITGYAVTVEWNGRVLMTPISINYRT
notes: 10Fn3 clone, Del 1-8
B26: B11 (designed binder)
chain: EVVAATPTSLLISWRHPHFPTRYYRITYGETGGNSPVQEFTVPLQPPTATISGLKPGVDYTITGYAVTVERNGRELKTPISINYRT
notes: 10Fn3 clone, Del 1-8
B27: A7 (designed binder)
chain: EVVAATPTSLLISWRHPHFPTRYYRITYGETGGNSPVQEFTVPLQPPTATISGLKPGVDYTITGYAVTDGPNNRELIVPISINYRT
notes: 10Fn3 clone, Del 1-8
B28: F12 (designed binder)
chain: EVVAATPTSLLISWRHPHFPTRYYRITYGETGGNSPVQEFTVPLQPPTATISGLKPGVDYTITGYAVTDGRNGHELMTPISINYRT
notes: 10Fn3 clone, Del 1-8
B29: A11 (designed binder)
chain: EVVAATPTSLLISWRHPHFPTRYYRITYGETGGNSPVQEFTVPLQPPTATISGLKPGVDYTITGYAVTLEWNNRVLMTPISINYRT
notes: 10Fn3 clone, Del 1-8
B30: A10 (designed binder)
chain: EVVAATPTSLLISWRHPHFPTRYYRITYGETGGNSPVQEFTVPLQPPTATISGLKPGVDYTITGYAVTFGWNGRELLTPISINYRT
notes: 10Fn3 clone, Del 1-8

How the values were obtained:
[1] = target: T1, human vascular endothelial growth factor receptor-2 Fc chimera (KDR-Fc) (human, UniProt P35968 20-764); assay: radioactive equilibrium binding, 1 nM KDR-Fc
T1 construct: range 1-764; also called human VEGFR-2; VEGF-R2-Fc; not shown: human IgG1 Fc
Outline: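 Receptor-Fc fusions titrated from 0 to 200 nM against a fixed 0.2 or 0.5 nM of ³⁵S-labeled scaffold protein for 1 h at 30° C. Protein A bead pull-down followed by scintillation counting of eluate versus reaction mixture. Specific binding is total minus no-receptor binding, fitted to a one-site nonlinear equation.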
T1 sequence (P35968 20-764 limits assumed, change not shown, form in doubt): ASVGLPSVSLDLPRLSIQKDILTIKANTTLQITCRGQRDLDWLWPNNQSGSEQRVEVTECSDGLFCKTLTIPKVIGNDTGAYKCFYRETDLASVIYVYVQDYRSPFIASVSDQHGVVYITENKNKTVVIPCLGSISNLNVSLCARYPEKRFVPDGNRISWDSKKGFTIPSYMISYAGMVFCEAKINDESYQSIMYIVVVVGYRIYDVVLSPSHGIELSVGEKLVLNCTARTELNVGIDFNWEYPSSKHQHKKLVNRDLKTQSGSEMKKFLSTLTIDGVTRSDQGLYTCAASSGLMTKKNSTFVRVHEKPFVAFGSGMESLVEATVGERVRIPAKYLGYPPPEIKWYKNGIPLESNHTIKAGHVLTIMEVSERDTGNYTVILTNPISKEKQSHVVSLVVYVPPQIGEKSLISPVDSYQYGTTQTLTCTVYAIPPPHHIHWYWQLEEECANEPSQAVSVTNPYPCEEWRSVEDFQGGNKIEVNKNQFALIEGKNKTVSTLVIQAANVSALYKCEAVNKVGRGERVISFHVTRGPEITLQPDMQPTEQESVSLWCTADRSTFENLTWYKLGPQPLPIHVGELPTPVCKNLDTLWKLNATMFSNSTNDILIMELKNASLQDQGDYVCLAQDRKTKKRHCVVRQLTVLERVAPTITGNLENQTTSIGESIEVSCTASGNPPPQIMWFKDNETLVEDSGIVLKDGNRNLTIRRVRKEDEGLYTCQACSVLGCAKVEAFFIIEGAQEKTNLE

[2] = target: T2, human vascular endothelial growth factor receptor-2 Fc chimera (KDR-Fc) (human, UniProt P35968 20-764); assay: radioactive equilibrium binding assay, 1 nM KDR-Fc, % of input bound
T2 construct: range 1-764; also called human VEGFR-2; not shown: human IgG1 Fc
Experimental: (§1) To prepare ³⁵S-labeled binding proteins for analysis, mRNA was prepared as described above for RNA-protein fusion production but the linker ligation step was omitted. The mRNA was expressed using rabbit reticulocyte lysate translation kit (Ambion) in the presence of ³⁵S-labeled Met at 30° C. for 1 hour. Expressed protein was purified on M2-agarose Flag beads (Sigma) as described above. This procedure produced the encoded protein without the nucleic acid tail. In a direct binding assay, VEGF-R2-Fc fusions in concentrations ranging from 0 to 200 nM were added to a constant concentration of the purified protein (0.2 or 0.5 nM) and incubated at 30° C. for 1 hour in buffer B. The receptor-binder complexes were captured using Protein A magnetic beads for another 10 minutes at room temperature using a Kingfisher™ The beads were washed with six reaction volumes of buffer B. The protein was eluted from the beads with 100 μL of 0.1 M KOH. […] of the reaction mixture and elution were dried onto a LumaPlate-96 (Packard) and the amount of ³⁵S on the plate was measured using a TopCount NXT instrument (Packard). The amount of fibronectin-based scaffold protein bound to the target was estimated as a percent of radioactivity eluted from Protein A magnetic beads compare to radioactivity in the reaction mixture. Nonspecific binding of fibronectin-based scaffold proteins to the beads was determined by measuring binding in the absence of KDR-Fc and represented less than 1-2% of the input. Specific binding was obtained through subtraction of nonspecific binding from total binding. Data was analyzed using the GraphPad Prizm software (GraphPad Software, Inc, San Diego, Calif.), fitted using a one site, non-linear binding equation.
T2 sequence (P35968 20-764 limits assumed, change not shown, form in doubt): as above

[3] = target: T3, mouse vascular endothelial growth factor receptor-2 Fc chimera (Flk-1-Fc) (mouse, UniProt P35918 20-762); assay: radioactive equilibrium binding assay, 1 nM Flk-1-Fc, % of input bound
T3 construct: Bought from R&D Systems; also called mouse VEGFR-2; not shown: Fc part of the purchased chimera, not specified
T3 sequence (P35918 20-762, change not shown): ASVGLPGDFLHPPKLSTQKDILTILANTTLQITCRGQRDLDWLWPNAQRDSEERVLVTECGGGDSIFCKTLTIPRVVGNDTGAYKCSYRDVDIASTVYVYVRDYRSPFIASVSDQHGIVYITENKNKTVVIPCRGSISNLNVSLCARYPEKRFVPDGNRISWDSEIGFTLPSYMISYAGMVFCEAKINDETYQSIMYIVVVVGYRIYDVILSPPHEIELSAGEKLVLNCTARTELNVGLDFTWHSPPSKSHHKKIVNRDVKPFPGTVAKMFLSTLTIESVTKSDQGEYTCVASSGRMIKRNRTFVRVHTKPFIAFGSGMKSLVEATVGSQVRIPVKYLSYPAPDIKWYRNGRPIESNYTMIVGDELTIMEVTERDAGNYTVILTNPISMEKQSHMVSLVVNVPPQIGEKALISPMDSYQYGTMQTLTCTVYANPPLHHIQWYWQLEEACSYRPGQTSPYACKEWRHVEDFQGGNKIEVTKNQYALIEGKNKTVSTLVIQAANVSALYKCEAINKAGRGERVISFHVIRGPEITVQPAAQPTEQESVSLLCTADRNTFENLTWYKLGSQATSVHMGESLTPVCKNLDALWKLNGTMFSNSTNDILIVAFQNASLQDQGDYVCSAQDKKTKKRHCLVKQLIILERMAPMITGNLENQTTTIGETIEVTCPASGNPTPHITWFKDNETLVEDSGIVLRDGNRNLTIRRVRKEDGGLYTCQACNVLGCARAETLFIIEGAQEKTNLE
Experimental: as §1

Row | Binder | Binding to 1 nM KDR, % [1] [%] | Binding to 1 nM KDR, % [2] [%] | Binding to 1 nM Flk-1, % [3] [%]
1 | B1 | 22 |  | 
2 | B2 | 16 |  | 
3 | B3 | 17 |  | 
4 | B4 | 22 |  | 
5 | B5 |  | 33 | 7
6 | B6 | 17 |  | 
7 | B7 | 26 |  | 
8 | B8 |  | 22 | 
9 | B9 | 14 |  | 
10 | B10 |  | 46 | 2
11 | B11 | 21 |  | 
12 | B12 | 25 |  | 
13 | B13 |  | 33 | 27
14 | B14 |  | 38 | 4
15 | B15 |  | 31 | 4
16 | B16 | 17 |  | 
17 | B17 | 19 |  | 
18 | B18 | 29 |  | 
19 | B19 | 20 |  | 
20 | B20 |  | 19 | 12
21 | B21 | 18 |  | 
22 | B22 | 27 |  | 
23 | B23 | 29 |  | 
24 | B24 | 16 |  | 
25 | B25 |  | 40 | 10
26 | B26 |  | 29 | 
27 | B27 |  | 18 | 2
28 | B28 |  | 17 | 
29 | B29 |  | 26 | 6
30 | B30 |  | 34 | 4
